Patent US20160145657A1, “Methods and Materials for Producing 7-Carbon Chemicals via a C9 Route” (INVISTA North America S.á.r.l., priority 2014, published 2016)

B1: SEQ ID NO: 4: Segniliparus rugosus carboxylate reductase, Genbank Accession No. EFV11917.1 (protein)
chain: MGDGEERAKRFFQRIGELSATDPQFAAAAPDPAVVEAVSDPSLSFTRYLDTLMRGYAERPALAHRVGAGYETISYGELWARVGAIAAAWQADGLAPGDFVATVGFTSPDYVAVDLAAARSGLVSVPLQAGASLAQLVGILEETEPKVLAASASSLEGAVACALAAPSVQRLVVFDLRGPDASESAADERRGALADAEEQLARAGRAVVVETLADLAARGEALPEAPLFEPAEGEDPLALLIYTSGSTGAPKGAMYSQRLVSQLWGRTPVVPGMPNISLHYMPLSHSYGRAVLAGALSAGGTAHFTANSDLSTLFEDIALARPTFLALVPRVCEMLFQESQRGQDVAELRERVLGGRLLVAVCGSAPLSPEMRAFMEEVLGFPLLDGYGSTEALGVMRNGIIQRPPVIDYKLVDVPELGYRTTDKPYPRGELCIRSTSLISGYYKRPEITAEVFDAQGYYKTGDVMAEIAPDHLVYVDRSKNVLKLSQGEFVAVAKLEAAYGTSPYVKQIFVYGNSERSFLLAVVVPNAEVLGARDQEEAKPLIAASLQKIAKEAGLQSYEVPRDFLIETEPFTTQNGLLSEVGKLLRPKLKARYGEALEARYDEIAHGQADELRALRDGAGQRPVVETVVRAAVAISGSEGAEVGPEANFADLGGDSLSALSLANLLHDVFEVEVPVRIIIGPTASLAGIAKHIEAERAGASAPTAASVHGAGATRIRASELTLEKFLPEDLLAAAKGLPAADQVRTVLLTGANGWLGRFLALEQLERLARSGQDGGKLICLVRGKDAAAARRRIEETLGTDPALAARFAELAEGRLEVVPGDVGEPKFGLDDAAWDRLAEEVDVIVHPAALVNHVLPYHQLFGPNVVGTAEIIRLAITAKRKPVTYLSTVAVAAGVEPSSFEEDGDIRAVVPERPLGDGYANGYGNSKWAGEVLLREAHELVGLPVAVFRSDMILAHTRYTGQLNVPDQFTRLVLSLLATGIAPKSFYQQGAAGERQRAHYDGIPVDFTAEAITTLGAEPSWFDGGAGFRSFDVFNPHHDGVGLDEFVDWLIEAGHPISRIDDHKEWFARFETAVRGLPEAQRQHSLLPLLRAYSFPHPPVDGSVYPTGKFQGAVKAAQVGSDHDVPHLGKALIVKYADDLKALGLL
B2: SEQ ID NO 5: Mycobacterium abscessus subsp. bolletii (Mycobacterium massiliense) carboxylate reductase, Genbank Accession No. EIV11143.1 (protein)
chain: MTNETNPQQEQLSRRIESLRESDPQFRAAQPDPAVAEQVLRPGLHLSEAIAALMTGYAERPALGERARELVIDQDGRTTLRLLPRFDTTTYGELWSRTTSVAAAWHHDATHPVKAGDLVATLGFTSIDYTVLDLAIMILGGVAVPLQTSAPASQWTTILAEAEPNTLAVSIELIGAAMESVRATPSIKQVVVFDYTPEVDDQREAFEAASTQLAGTGIALETLDAVIARGAALPAAPLYAPSAGDDPLALLIYTSGSTGAPKGAMHSENIVRRWWIREDVMAGTENLPMIGLNFMPMSHIMGRGTLTSTLSTGGTGYFAASSDMSTLFEDMELIRPTALALVPRVCDMVFQRFQTEVDRRLASGDTASAEAVAAEVKADIRDNLFGGRVSAVMVGSAPLSEELGEFIESCFELNLTDGYGSTEAGMVFRDGIVQRPPVIDYKLVDVPELGYFSTDKPHPRGELLLKTDGMFLGYYKRPEVTASVFDADGFYMTGDIVAELAHDNIEIIDRRNNVLKLSQGEFVAVATLEAEYANSPVVHQIYVYGSSERSYLLAVVVPTPEAVAAAKGDAAALKTTIADSLQDIAKEIQLQSYEVPRDFIIEPQPFTQGNGLLTGIAKLARPNLKAHYGPRLEQMYAEIAEQQAAELRALHGVDPDKPALETVLKAAQALLGVSSAELAADAHFTDLGGDSLSALSFSDLLRDIFAVEVPVGVIVSAANDLGGVAKFVDEQRHSGGTRPTAETVHGAGHTEIRAADLTLDKFIDEATLHAAPSLPKAAGIPHTVLLTGSNGYLGHYLALEWLERLDKTDGKLIVIVRGKNAEAAYGRLEEAFDTGDTELLAHFRSLADKHLEVLAGDIGDPNLGLDADTWQRLADTVDVIVHPAALVNHVLPYNQLFGPNVVGTAEIIKLAITTKIKPVTYLSTVAVAAYVDPTTFDEESDIRLISAVRPIDDGYANGYGNAKWAGEVLLREAHDLCGLPVAVFRSDMILAHSRYTGQLNVPDQFTRLILSLIATGIAPGSFYQAQTTGERPLAHYDGLPGDFTAEAITTLGTQVPEGSEGFVTYDCVNPHADGISLDNFVDWLIEAGYPIARIDNYTEWFTRFDTAIRGLSEKQKQHSLLPLLHAFEQPSAAENHGVVPAKRFQHAVQAAGIGPVGQDGTTDIPHLSRRLIVKYAKDLEQLGLL

Columns and labels:
[1] = carboxylate reductase activity, pimelate to pimelate semialdehyde, NADPH consumption at 340 nm; assay type: biochemical; conditions: purified enzyme enhanced by sfp gene product, 2 mM pimelate, pH 7.5, room temperature, 20 min; FIG. 8
Procedure: A nucleotide sequence encoding a HIS-tag was added to the nucleic acid sequences from Segniliparus rugosus and Segniliparus rotundus that encode the carboxylate reductases of SEQ ID NOs: 4 (EFV11917.1) and 6 (ADG98140.1), respectively (see FIG. 6), such that N-terminal HIS tagged carboxylate reductases could be produced. Each of the modified genes was cloned into a pET Duet expression vector along with a sfp gene encoding a HIS-tagged phosphopantetheine transferase from Bacillus subtilis, both under the T7 promoter. Each expression vector was transformed into a BL21[DE3] E. coli host and the resulting recombinant E. coli strains were cultivated at 37° C. in a 250 mL shake flask culture containing 50 mL LB media and antibiotic selection pressure, with shaking at 230 rpm. Each culture was induced overnight at 37° C. using an auto-induction media.
The pellet from each induced shake flask culture was harvested via centrifugation. Each pellet was resuspended and lysed via sonication, and the cell debris was separated from the supernatant via centrifugation. […]
Enzyme activity assays (i.e., from pimelate to pimelate semialdehyde) were performed in triplicate in a buffer composed of a final concentration of 50 mM HEPES buffer (pH=7.5), 2 mM pimelate, 10 mM MgCl2, 1 mM ATP and 1 mM NADPH. […] The consumption of NADPH was monitored by absorbance at 340 nm. […]

[2] = carboxylate reductase activity, N7-acetyl-7-aminoheptanoate to N7-acetyl-7-aminoheptanal, NADPH consumption at 340 nm; assay type: biochemical; conditions: purified enzyme enhanced by sfp gene product, 2 mM N7-acetyl-7-aminoheptanoate, pH 7.5, room temperature, 20 min; FIG. 10
Procedure: The activity of each of the N-terminal His-tagged carboxylate reductases of SEQ ID NOs: 3, 5, and 6 (see Examples 2 and 3, and FIG. 6) for converting N7-acetyl-7-aminoheptanoate to N7-acetyl-7-aminoheptanal was assayed in triplicate in a buffer composed of a final concentration of 50 mM HEPES buffer (pH=7.5), 2 mM N7-acetyl-7-aminoheptanoate, 10 mM MgCl2, 1 mM ATP, and 1 mM NADPH. The assays were initiated by adding purified carboxylate reductase and phosphopantetheine transferase or the empty vector control to the assay buffer containing the N7-acetyl-7-aminoheptanoate then incubated at room temperature for 20 min. The consumption of NADPH was monitored by absorbance at 340 nm.

Row | Molecule | acceptance of pimelate as substrate (NADPH consumption) against the empty vector control [1] | acceptance of N7-acetyl-7-aminoheptanoate as substrate (NADPH consumption) against the empty vector control [2]
1 | B1 | accepted pimelate as substrate | 
2 | B2 |  | accepted N7-acetyl-7-aminoheptanoate as substrate
